Changes are numbered by the printed parent chain.
B1: M6-D09 (antibody, V domains shown)
VH: EVQLLESGGGLVQPGGSLRLSCAASGFTFSFYYMVWVRQAPGKGLEWVSVIYPSGGITVYADSVKGRFTISRDNSKNTLYLQMNSLRAEDTAVYYCARDKWAVMPPYYYYAMDVWGQGTTVTVSS
VL: DIQMTQSPSSLSASVSDRVTITCRASQSIRNYLNWYQQKPSKAPNLLIYAASTLQSGVPARFSGSGSGTDFTLTISSLQPEDFATYYCQQLSGYPHTFGQGTKLEIK
notes: HC as printed runs into CH1
B2: M137-E12 (antibody, V domains shown)
VH: EVQLLESGGGLVQPGGSLRLSCAASGFTFSDYRMQWVRQAPGKGLEWVSVIVPSGGNTMYADSVKGRFTISRDNSKNTLYLQMNSLRAEDTAVYYCARGGPGSSIAARPAPTGYYGMDVWGQGTTVTVSS
VL: QSVLIQPPSVSGIPGQRVTISCSGNNSNFGSNTVTWYQQLPGTAPKLLIYSDSRRPSGVPDRFSGSRSDTSASLAISGLQSEDEAEYHCAAWDDSLNGVFGGGTKLTVL
B3: M76-D01 (antibody, V domains shown)
VH: EVQLLESGGGLVQPGGSLRLSCAASGFTFSFYAMHWVRQAPGKGLEWVSGIVPSGGRTHYADSVKSRFTISRDNSKNTLYLQMNSLRAEDTAVYYCATDSSGSPNPLFDYWGQGTLVTVSS
VL: DIVMTQTPPSLPVNPGEPASISCRSSQSLSDDGNTYLDWYLQRPGQSPQLLIHTLSYRASGVPDRFSGSGSGTDFTLKISRVEAEDVGVYYCMQGTHWPPTFGQGTKVEIK
B4: M29-E09 (antibody, V domains shown)
VH: EVQLLESGGGLVQPGGSLRLSCAASGFTFSWYEMGWVRQAPGKGLEWVSSIYSSGGGTMYADSVKGRFTISRDNSKNTLYLQMNSLRAEDTAVYYCARNPQYSGYDRSLSDGAFDIWGQGTMVTVSS
VL: QYELTQPPSVSVSPSQTATITCSGDNLGNKYNSWYQQKPGQSPLLVIYQDTKRPSAIPERFSGSNSGNTAILTISGTQAMDEADYYCQAWDGNVVFGGGTKLTVL
B5: M29-D09 (antibody, V domains shown)
VH: EVQLLESGGGLVQPGGSLRLSCAASGFTFSWYTMVWVRQAPGKGLEWVSYIYPSGGATFYADSVKGRFTISRDNSKNTLYLQMNSLRAEDTAVYYCAMGSYDYIWGFYSDHWGQGTLVTVSS
VL: QSALTQPPTVSVSPGQTARITCSGNKLGDKYVAWYQQKPGQSPMLVIYQDTKRPSAIPERFSGSNSANTATLSISGTQALDEADYYCQAWDSSIVIFGGGTRLTVL
notes: HC as printed runs into CH1
B6: M207-A04 (Fab, V domains shown)
VH: EVQLLESGGGLVQPGGSLRLSCAASGFTFSHYLMTWVRQAPGKGLEWVSYISPSGGHTIYADSVKGRFTISRDNSKNTLYLQMNSLRAEDTAVYYCARVARGIAARSRTSYFDYWGQGTLVTVSS
VL: DIQMTQSPGTLSLSPGERATLSCRTSQFVNSNYLAWYQQTPGQAPRLLIYGASSRATGIPDRFSGTGYGTDFTLTISRLEPEDYGTYYCQQSSRTPWTFGQGTRVEIK
B7: M209-D02 (Fab, V domains shown)
VH: B6 VH with A104T, Y114D
VL: B6 VL with G42S
B8: M209-H03 (Fab, V domains shown)
VH: B6 VH with G42S, R101Q, S110T, Y111Q
VL: B6 VL
B9: M209-D12 (Fab, V domains shown)
VH: B6 VH with G42S, R98T, Y114Q
VL: B6 VL
B10: M209-B11 (Fab, V domains shown)
VH: B6 VH with F112I, Y114Q
VL: B6 VL
B11: M209-H07 (Fab, V domains shown)
VH: B6 VH with S107Q, F112Y
VL: B6 VL with S53D, S54D

Each binder was assayed against T1, mouse plasma kallikrein (mouse, UniProt P26262 20-638) (assay: apparent Ki (Ki,app), mouse pKal).
T1 construct: mature; Source of the mouse enzyme used for Ki,app is not described; also called mouse pKal
T1 sequence (P26262 20-638 limits assumed): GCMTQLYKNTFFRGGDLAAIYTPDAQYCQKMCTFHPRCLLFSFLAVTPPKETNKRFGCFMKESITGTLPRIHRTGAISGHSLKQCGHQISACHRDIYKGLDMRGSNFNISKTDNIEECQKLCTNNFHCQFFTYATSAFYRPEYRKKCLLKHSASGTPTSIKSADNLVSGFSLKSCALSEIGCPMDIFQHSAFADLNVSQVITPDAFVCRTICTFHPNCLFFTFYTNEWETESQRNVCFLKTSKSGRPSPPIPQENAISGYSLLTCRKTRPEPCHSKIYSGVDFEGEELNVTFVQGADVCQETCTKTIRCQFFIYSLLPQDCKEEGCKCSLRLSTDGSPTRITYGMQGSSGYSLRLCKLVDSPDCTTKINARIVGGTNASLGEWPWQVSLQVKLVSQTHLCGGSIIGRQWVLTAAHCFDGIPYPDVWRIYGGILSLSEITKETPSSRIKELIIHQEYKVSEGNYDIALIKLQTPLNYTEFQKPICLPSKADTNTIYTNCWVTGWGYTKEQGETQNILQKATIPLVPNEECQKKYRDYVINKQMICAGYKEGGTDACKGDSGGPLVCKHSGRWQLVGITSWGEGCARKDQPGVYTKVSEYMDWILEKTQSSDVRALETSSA

Ki | Binder
3.9 nM | B1

The binders below were run against T2, human plasma kallikrein (human, UniProt P03952 20-390; P03952 391-638) (assay: ELISA; signal on biotinylated plasma kallikrein divided by signal on streptavidin background).
T2 construct: also called pKal; human pKal
Text: Abbreviations used: “T/B” is the ELISA signal obtained using of the “target” (biotinylated plasma kallikrein) divided by the ELISA signal of the “background” (streptavidin); both of which were coated on microtiter plates. “nd” is not determined. The symbol “q” refers to the amber suppressible stop codon (TAG), which is translated as glutamine (Q) in strains of E. coli such as the TG1 cells that were used to express the Fab fragments.
T2 sequence (P03952 20-390, chain 1 of 2): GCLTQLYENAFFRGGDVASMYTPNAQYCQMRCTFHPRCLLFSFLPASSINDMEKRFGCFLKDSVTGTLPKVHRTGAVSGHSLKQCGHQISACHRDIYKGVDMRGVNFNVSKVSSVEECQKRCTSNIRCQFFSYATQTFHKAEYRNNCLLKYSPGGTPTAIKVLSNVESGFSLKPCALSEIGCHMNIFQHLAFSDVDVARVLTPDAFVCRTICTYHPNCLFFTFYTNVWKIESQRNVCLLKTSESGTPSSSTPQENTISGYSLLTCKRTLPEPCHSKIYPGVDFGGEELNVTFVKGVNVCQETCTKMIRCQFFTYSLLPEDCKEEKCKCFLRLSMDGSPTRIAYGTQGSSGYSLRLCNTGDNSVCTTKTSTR
T2 sequence (P03952 391-638, chain 2 of 2): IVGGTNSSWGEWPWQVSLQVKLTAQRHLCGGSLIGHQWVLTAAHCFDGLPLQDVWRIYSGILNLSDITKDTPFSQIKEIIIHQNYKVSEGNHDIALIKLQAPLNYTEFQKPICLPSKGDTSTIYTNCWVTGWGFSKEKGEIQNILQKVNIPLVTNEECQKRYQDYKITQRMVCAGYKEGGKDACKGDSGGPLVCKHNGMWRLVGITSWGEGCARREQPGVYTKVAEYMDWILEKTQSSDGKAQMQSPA

ELISA (T/B) | Binder
4.5 T/B ratio | B2
11.2 T/B ratio | B3
28.8 T/B ratio | B4

Each binder was assayed against T3, human plasma kallikrein (human, UniProt P03952 20-390; P03952 391-638) (assay: apparent Ki (Ki,app), human pKal).
T3 construct: two disulfide linked chains; also called pKal; human pKal
T3 sequence (P03952 20-390, chain 1 of 2): as the sequence (P03952 20-390, chain 1 of 2) above
T3 sequence (P03952 391-638, chain 2 of 2): as the sequence (P03952 391-638, chain 2 of 2) above

Ki | Binder
5.9 nM | B1
0.7 nM | B5

The binders below were run against T2, human plasma kallikrein (assay: apparent Ki (Ki,app), inhibition of human pKal activity).

Ki | Binder
79 nM | B2
< 100 nM | B3
11 nM | B4

Each binder was assayed against T3, human plasma kallikrein (assay: cell-based or functional assay).

% inhibition at 10 nM | Binder
90.9% | B6
74.7% | B7
82.6% | B8
85.4% | B9
87.3% | B10
76.1% | B11

Source: US20100183625A1 (published 2010)
